This assay addresses wild type RT1.A^a (rat MHC class I antigen) on transfected BUF (RT1^b) Morris hepatoma 7316A cells (rat). The assay can be described thus: flow cytometry on BUF hepatoma cells transfected with WT-RT1.A^a, FITC rabbit anti-rat Ig.

Here are results for one substance from patent US6051232.

In the case of “R2/15S anti-rat RT1.A^a class I polymorphic monoclonal antibody (tool reagent)”, the positive staining (percent of cells) is > 90%.
